In the Human Domainome abundance scans (Beltran et al. 2025):
± gives the uncertainty stated by the source.

B1: Homeobox expressed in ES cells 1, residues 110 to 165; numbered along this chain, Q9UBX0 (parent)
chain: RPRTAFTQNQIEVLENVFRVNCYPGIDIREDLAQKLNLEEDRIQIWFQNRRAKLKR

Variants of: B1
Assay: abundance fitness (aPCA) (normalised: wild type 0, dead -1); higher = more abundant; growth selection in yeast, the domain comes from the species named
Conditions: Homo sapiens

For K55V, which abundance fitness is on record?
Its abundance fitness is -0.672 ± 0.37.

For K55L, which abundance fitness is on record?
Its abundance fitness is -0.583 ± 0.23.

For K55P, which abundance fitness is on record?
Its abundance fitness is -0.042 ± 0.19.

Which abundance fitness does the source give for K55N here?
Its abundance fitness is -0.068 ± 0.31.

With K55R as the variant, how does the abundance fitness read?
The abundance fitness was -0.369 ± 0.089.

With K55D as the variant, how does the abundance fitness read?
Its abundance fitness is -0.419 ± 0.37.

For K55A, which abundance fitness is on record?
Its abundance fitness is -0.451 ± 0.24.

Which abundance fitness does the source give for K55F here?
The abundance fitness was -0.349 ± 0.46.

With K55I as the variant, how does the abundance fitness read?
Its abundance fitness is 0.143 ± 0.15.

Which abundance fitness does the source give for K55Y here?
Its abundance fitness is -0.479 ± 0.35.

Which abundance fitness does the source give for K55M here?
The abundance fitness was -0.181 ± 0.078.

With I45Y as the variant, how does the abundance fitness read?
The abundance fitness was 0.019 ± 0.26.

Which abundance fitness does the source give for R56V here?
Its abundance fitness is -0.171 ± 0.27.

Which abundance fitness does the source give for R56G here?
Its abundance fitness is 0.104 ± 0.25.

For R56D, which abundance fitness is on record?
Its abundance fitness is 0.686 ± 0.31.

For R56C, which abundance fitness is on record?
The abundance fitness was 0.033 ± 0.1.

With R56W as the variant, how does the abundance fitness read?
The abundance fitness was 0.617 ± 0.15.

For R50S, which abundance fitness is on record?
Its abundance fitness is -0.666 ± 0.22.

With R50A as the variant, how does the abundance fitness read?
The abundance fitness was -0.206 ± 0.083.

With R50G as the variant, how does the abundance fitness read?
The abundance fitness was -0.782 ± 0.13.

Which abundance fitness does the source give for R50K here?
Its abundance fitness is -0.39 ± 0.34.

Which abundance fitness does the source give for R50N here?
Its abundance fitness is -0.378 ± 0.3.

Which abundance fitness does the source give for R50E here?
The abundance fitness was 0.178 ± 0.071.

For R50D, which abundance fitness is on record?
Its abundance fitness is -0.443 ± 0.22.

Which abundance fitness does the source give for R50Q here?
Its abundance fitness is 0.153 ± 0.2.

Which abundance fitness does the source give for R50M here?
Its abundance fitness is -0.38 ± 0.26.

Which abundance fitness does the source give for R50T here?
Its abundance fitness is -0.236 ± 0.24.

With R50C as the variant, how does the abundance fitness read?
The abundance fitness was -0.614 ± 0.3.

With R50H as the variant, how does the abundance fitness read?
Its abundance fitness is -0.242 ± 0.34.

Which abundance fitness does the source give for R50L here?
Its abundance fitness is -0.818 ± 0.38.

Which abundance fitness does the source give for R50P here?
Its abundance fitness is -0.954 ± 0.41.

For R50V, which abundance fitness is on record?
The abundance fitness was -0.727 ± 0.21.

With R51L as the variant, how does the abundance fitness read?
The abundance fitness was -0.752 ± 0.24.

With R51N as the variant, how does the abundance fitness read?
Its abundance fitness is -0.131 ± 0.19.

For R51Y, which abundance fitness is on record?
The abundance fitness was -0.782 ± 0.16.

Which abundance fitness does the source give for R51S here?
The abundance fitness was -0.491 ± 0.27.

Which abundance fitness does the source give for R51E here?
Its abundance fitness is -0.632 ± 0.12.

With R51V as the variant, how does the abundance fitness read?
Its abundance fitness is -0.243 ± 0.079.

With R51Q as the variant, how does the abundance fitness read?
The abundance fitness was -0.43 ± 0.3.

Which abundance fitness does the source give for R51D here?
Its abundance fitness is 0.168 ± 0.45.

Which abundance fitness does the source give for R51M here?
Its abundance fitness is -0.109 ± 0.12.

For R51K, which abundance fitness is on record?
Its abundance fitness is -0.577 ± 0.27.

Which abundance fitness does the source give for R51C here?
Its abundance fitness is -0.368 ± 0.12.

For R51I, which abundance fitness is on record?
Its abundance fitness is -0.336 ± 0.31.

For R51T, which abundance fitness is on record?
Its abundance fitness is -0.301 ± 0.23.

For R51A, which abundance fitness is on record?
The abundance fitness was -0.424 ± 0.17.

With R51G as the variant, how does the abundance fitness read?
Its abundance fitness is -0.671 ± 0.18.

For W46D, which abundance fitness is on record?
Its abundance fitness is -0.428 ± 0.4.

With W46Y as the variant, how does the abundance fitness read?
Its abundance fitness is 0.48 ± 0.26.

Which abundance fitness does the source give for W46A here?
The abundance fitness was -0.693 ± 0.1.

Which abundance fitness does the source give for W46T here?
The abundance fitness was -0.721 ± 0.36.

For W46F, which abundance fitness is on record?
Its abundance fitness is -0.547 ± 0.33.

Which abundance fitness does the source give for W46L here?
The abundance fitness was -0.895 ± 0.29.

Which abundance fitness does the source give for W46C here?
Its abundance fitness is -1.15 ± 0.25.

With W46K as the variant, how does the abundance fitness read?
The abundance fitness was -0.925 ± 0.44.

With W46S as the variant, how does the abundance fitness read?
Its abundance fitness is -0.595 ± 0.26.

With W46E as the variant, how does the abundance fitness read?
The abundance fitness was -0.751 ± 0.31.

Which abundance fitness does the source give for W46G here?
The abundance fitness was -1.07 ± 0.18.

With W46V as the variant, how does the abundance fitness read?
The abundance fitness was -0.928 ± 0.29.

With W46P as the variant, how does the abundance fitness read?
The abundance fitness was -0.361 ± 0.26.

For W46H, which abundance fitness is on record?
The abundance fitness was -0.58 ± 0.36.

Which abundance fitness does the source give for N49H here?
The abundance fitness was -0.232 ± 0.31.

For N49D, which abundance fitness is on record?
The abundance fitness was 0.044 ± 0.11.

With N49W as the variant, how does the abundance fitness read?
The abundance fitness was -0.471 ± 0.11.

Which abundance fitness does the source give for N49I here?
Its abundance fitness is -0.46 ± 0.23.

For N49C, which abundance fitness is on record?
Its abundance fitness is -0.425 ± 0.088.

With N49M as the variant, how does the abundance fitness read?
Its abundance fitness is 0.052 ± 0.2.

For N49L, which abundance fitness is on record?
The abundance fitness was -0.19 ± 0.1.

For N49K, which abundance fitness is on record?
The abundance fitness was -0.102 ± 0.23.

With N49T as the variant, how does the abundance fitness read?
Its abundance fitness is -0.019 ± 0.11.

With N49E as the variant, how does the abundance fitness read?
Its abundance fitness is 0.43 ± 0.12.

With N49A as the variant, how does the abundance fitness read?
Its abundance fitness is 0.217 ± 0.13.

With N49F as the variant, how does the abundance fitness read?
Its abundance fitness is -0.604 ± 0.41.

Which abundance fitness does the source give for N49S here?
The abundance fitness was -0.198 ± 0.16.

Which abundance fitness does the source give for N49R here?
The abundance fitness was -0.291 ± 0.14.

With N49Q as the variant, how does the abundance fitness read?
Its abundance fitness is -0.124 ± 0.37.

With N49G as the variant, how does the abundance fitness read?
Its abundance fitness is -0.527 ± 0.093.

For N49P, which abundance fitness is on record?
Its abundance fitness is -0.648 ± 0.34.

Which abundance fitness does the source give for Q48T here?
Its abundance fitness is 0.299 ± 0.14.

With Q48A as the variant, how does the abundance fitness read?
The abundance fitness was 0.233 ± 0.13.

With Q48R as the variant, how does the abundance fitness read?
The abundance fitness was 0.142 ± 0.12.

With Q48G as the variant, how does the abundance fitness read?
Its abundance fitness is -0.461 ± 0.092.

Which abundance fitness does the source give for Q48I here?
The abundance fitness was -0.23 ± 0.22.

Which abundance fitness does the source give for Q48K here?
The abundance fitness was 0.114 ± 0.17.

For Q48S, which abundance fitness is on record?
Its abundance fitness is -0.001 ± 0.14.

Which abundance fitness does the source give for Q48E here?
The abundance fitness was -0.098 ± 0.12.

For Q48C, which abundance fitness is on record?
Its abundance fitness is -0.466 ± 0.17.

Which abundance fitness does the source give for Q48M here?
Its abundance fitness is -0.073 ± 0.097.

Which abundance fitness does the source give for Q48P here?
Its abundance fitness is -0.658 ± 0.5.

For Q48N, which abundance fitness is on record?
Its abundance fitness is -0.307 ± 0.34.

With Q48V as the variant, how does the abundance fitness read?
Its abundance fitness is -0.026 ± 0.12.

Which abundance fitness does the source give for Q48H here?
The abundance fitness was -0.287 ± 0.33.

Which abundance fitness does the source give for K53T here?
Its abundance fitness is -0.115 ± 0.14.

For K53F, which abundance fitness is on record?
The abundance fitness was -0.326 ± 0.37.

For K53R, which abundance fitness is on record?
Its abundance fitness is 0.059 ± 0.086.

With K53P as the variant, how does the abundance fitness read?
Its abundance fitness is -0.345 ± 0.29.

With K53S as the variant, how does the abundance fitness read?
Its abundance fitness is -0.017 ± 0.083.

Which abundance fitness does the source give for K53N here?
The abundance fitness was -0.284 ± 0.41.

With K53Q as the variant, how does the abundance fitness read?
The abundance fitness was 0.267 ± 0.13.

For K53L, which abundance fitness is on record?
The abundance fitness was -0.067 ± 0.071.

Which abundance fitness does the source give for K53M here?
The abundance fitness was -0.075 ± 0.15.

Which abundance fitness does the source give for K53E here?
Its abundance fitness is 0.176 ± 0.15.

For K53V, which abundance fitness is on record?
The abundance fitness was -0.229 ± 0.19.

Which abundance fitness does the source give for K53G here?
The abundance fitness was -0.141 ± 0.079.

Which abundance fitness does the source give for K53I here?
Its abundance fitness is -0.156 ± 0.24.

Which abundance fitness does the source give for K53Y here?
The abundance fitness was -0.492 ± 0.15.

For K53C, which abundance fitness is on record?
Its abundance fitness is -0.459 ± 0.18.

For K53W, which abundance fitness is on record?
The abundance fitness was -0.405 ± 0.16.

For K53D, which abundance fitness is on record?
Its abundance fitness is -0.067 ± 0.26.
